Test results reported in patent publication US7067109.

Target: anti-VCAM-1•tTF coaguligand (anti-VCAM-1 antibody covalently linked through SMPT to truncated tissue factor) (human) (UniProt P13726)
Assay: 125I-labeled 10H10 on anti-VCAM-1•tTF-treated IL-1α-activated bEnd.3 cells

Sequence of UniProt P13726 (P13726 other isoform, or with tags, fused parts or gaps): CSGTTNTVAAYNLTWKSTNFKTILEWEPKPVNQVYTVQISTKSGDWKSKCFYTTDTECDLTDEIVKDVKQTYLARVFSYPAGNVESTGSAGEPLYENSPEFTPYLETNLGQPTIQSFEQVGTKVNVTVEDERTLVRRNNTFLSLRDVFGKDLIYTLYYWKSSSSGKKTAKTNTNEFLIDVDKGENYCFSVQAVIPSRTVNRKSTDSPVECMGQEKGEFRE

amount of antibody bound to the cells at saturation: 8.7 fmol
molecules of antibody bound per cell at saturation (molecules per cell): 540000
Substance: 10H10, mouse monoclonal antibody against human tissue factor
